{
  "source": "patent US12723255B2",
  "about": "“Herbicide tolerance genes and methods of use thereof” (priority 2014, dated 2026)",
  "molecules": {"B1": {"name": "MON-HT14: engineered oxygenase protein, amino acid sequence SEQ ID NO:48 (protein)", "chain": "MHAALTPLTNKYRHIDVQPLTGVLGAEITGVDLREPLDDSTWNEILDAFHTYQVIYFPGQAITNEQHIAFSRRFGPVDPVPILKSIEGYPEVQMIRREANESSRYIGDDWHADSTFLDAPPAAVVMRAIEVPEYGGDTGFLSMYSAWETLSPTMQATIEGLNVVHSATKVFGSLYQATNWRFSGTSVKVMDVDAGDRETVHPLVVTHPVTGRRALYCNQVYCQKIQGMTDAESKSLLQFLYEHATQFDFTCRVRWKKDQVLVWDNLCTMHRAVPDYAGKFRYLTRTTVAGDKPSR"}, "B2": {"name": "MON-HT18: engineered oxygenase protein, amino acid sequence SEQ ID NO:52 (protein)", "chain": "B1 chain with G184N"}, "B3": {"name": "MON-HT52: engineered oxygenase protein, amino acid sequence SEQ ID NO:4 (protein)", "chain": "MHAALSPLSQRFERIAVQPLTGVLGAEITGVDLREPLDDSTWNEILDAFHTYQVIYFPGQAITNEQQIAFSRRFGPVDPVPLLKSIEGYPEVQMIRREANESGRVIGDDWHTDSTFLDAPPAAVVMRAIDVPEHGGDTGFLSMYTAYDALSDGLKKLISGLNVVHSATRVFGSLYQAQNRRFSNTSVKVMDVDAGDRETVHPLVVTHPGSGRKGLYVNQVYCQRIEGMSEKESEPLLSFLFAHATKPEFTCRVRWKKDQVLVWDNLCTMHYAINDYHGQTRILHRTTVGGVRPAR"}, "B4": {"name": "MON-HT53: engineered oxygenase protein, amino acid sequence SEQ ID NO:7 (protein)", "chain": "B3 chain with D38S, Q67H, T112S"}, "B5": {"name": "MON-HT54: engineered oxygenase protein, amino acid sequence SEQ ID NO:9 (protein)", "chain": "B3 chain with Q67H, I106L, D193A, A194D, L261V"}},
  "key": {"[1]": {"test_system": "transgenic soybean plants", "test": "R0 soybean 2,4-D spray test of 2,4-D optimized variants", "format": "in vivo", "conditions": "for tolerance to 2,4-D treatment: 2× application rate, soy", "from_the_text": "An additional five engineered proteins optimized for activity for 2,4-D were then selected for analysis in transgenic soybean. DNA constructs were produced for expressing MON-HT13 (SEQ ID NO:47), MON-HT14 (SEQ ID NO:48), MON-HT15 (SEQ ID NO:49), MON-HT17 (SEQ ID NO:51), and MON-HT18 (SEQ ID NO:52) with codon usage optimized for dicot expression. The operably linked expression elements (promoter, leader, intron, CTP, and 3′UTR) were identical in all of the constructs. Leaf samples were taken from R0 plantlets and single copy plants were identified using a PCR-based assay. When the single-copy R0 plants had approximately two to three trifoliate leaves, they were treated with either 1.5 lb ae/acre (2×) or 3.0 lb ae/acre (4×) of 2,4-D. Seven days after herbicide application, the plants were scored for herbicide injury based on the percent area of the plant showing injury, as indicated above."}, "[2]": {"test": "enzyme kinetic measurements with purified protein", "format": "biochemical", "conditions": "for Km: 0-1280 uM substrate; for Vmax Fenoxaprop / Vmax Fluazifop / Vmax Haloxyfop / Vmax Quizalofop-P: relative values", "method": "(§1) The high-throughput herbicide degradation enzyme assay was designed to assay the enzymatic activity of the engineered proteins towards various herbicides using crude bacterial extract. The engineered protein's oxygenase activity (that is, its enzymatic activity) was measured by an end point colorimetric assay utilizing detection of phenol products through measurement of absorbance at 510 nm from 4-aminoantipyrine and potassium ferricyanide. This assay was based on the assay described in Fukomori and Hausinger, Journal of Biological Chemistry (1993) 268(32):24311-24317. Enzyme reactions were assayed in 96-well plates in a total volume of 150ul that contained: 20 mM MOPS pH 6.75, 50-200 uM NH4FeSO4, 50-200 uM sodium ascorbate, 1 mM alpha-ketoglutarate (aKG), 10 ul of E. coli cell lysate containing expressed engineered protein, and substrate (either an AOPP herbicide or phenoxy acid herbicide). […] Absorbance measurements were made on a standard laboratory spectrometer. Assays were scaled as needed to enhance throughput. Standard curves were generated using purified protein or product standards.\nFurther protein characterization, such as Km, Vmax, and crystal structure analysis, was performed using the five engineered proteins from Table 2. For this detailed analysis, purified protein was prepared as follows: 2 ml overnight cultures of E. coli expressing a transgene encoding a given MON-HT protein were used to inoculate 500 ml of broth and grown at 37° C. for 4 hours followed by culture at 15° C. for approximately 36 hours. Then 250 ml of the 500 ml bacterial culture was pelleted by centrifugation and resuspended in 25 ml of extraction buffer (20 mM Tris, pH 7.8, 300 mM NaCl, 5 mM beta-mercaptoethanol (BME), 20 mM imidazole (Fluka/Sigma-Aldrich, St. Louis, MO), 125 units/ml of benzonase and 10K units/ml of lysozyme (Novagen, Darmstadt, Germany). The cell slurry was passed through a cell disruptor once at 20000 psi and then this cell lysate was clarified by centrifugation at 35,000×g for 20 min at 4° C. The supernatant containing the soluble His-tagged proteins was used for protein purification. For this purification, the supernatant was applied to a 1 ml HisTrap™ FF column (Nickel Sepharose) (GE Healthcare, Piscataway, NJ) using an AKTaxpress™ system (GE Healthcare, Piscataway, NJ) following the standard manufacturer's protocol. The wash buffer consisted of: 20 mM Tris pH 7.8, 300 mM NaCl, 20 mM imidazole and 5 mM BME. The composition of elution buffer was the same as the wash buffer except with 500 mM imidazole. The eluate from the nickel column was desalted on a Quick Spin Protein Sephadex G-25 fine column (Roche Applied Science, Indianapolis, IN) following the manufacturer's protocol. The eluted protein was in buffer consisting of: 20 mM Tris pH 7.8, 50 mM NaCl and 5 mM BME. Protein extract purity was assessed by SDS-PAGE analysis. Protein concentration was determined by Bradford assay using Bio-Rad Protein Assay dye reagent (Biorad, Hercules, CA, cat no 500-0006).\nPurified protein for the five engineered proteins was analyzed using the enzyme assay described in this Example 1, but with four different AOPP herbicides as substrates: quizalofop-P, haloxyfop, fenoxaprop, and fluazifop. Standard curves were generated using 2,4-dichlorophenol (2,4-DCP), which was used to produce a general phenol standard curve. The amount of phenol generated in the assay by the engineered proteins was calculated based on this standard curve. The controls were purified wild-type enzyme, no enzyme, and no substrate. Enzyme kinetic measurements of the five engineered proteins was done using 0, 20, 40, 80, 160, 320, 640, or 1280 uM of quizalofop-P, haloxyfop, fenoxaprop, or fluazifop herbicides."}, "[3]": {"test": "high-throughput enzyme assay with crude bacterial extract", "format": "biochemical", "conditions": "relative to wild-type RdpA; for Average quizalofop-P activity: average of replicates", "method": "The high-throughput bacterial protein expression was achieved by synthesizing a recombinant DNA molecule encoding each engineered protein and cloning this into a bacterial expression vector with a C-terminal histidine tag (His-tag) operably linked to the recombinant DNA molecule. The vectors were used to transform Escherichia coli (E. coli), and bacterial expression of the engineered proteins was induced. Overnight E. coli cultures were grown in 96-well plates and the cultures were centrifuged to pellet the bacteria. The bacterial pellets were lysed by adding 100 ul lysis master mix (10 ml of Bacteria Protein Extraction Reagent (B-PER®) II (Pierce Biotechnology, Rockford, IL; cat. no. 78260); 10 ul Lysozyme (10 ug/ml final; Lysozyme American Bioanalytical, Natick, MA; cat. no. AB011780-00005); and 40 ul Benzonase® Nuclease (100 Units/ml final, Novagen, Darmstadt, Germany; cat no 71206-3)) to each well. The plates were vortexed then incubated for 30 minutes at 4° C. 400 ul of MOPS buffer (pH 6.57) was added to cach well and the debris pelleted by centrifugation. The lysate supernatant was carefully removed and used as the crude bacterial extract for subsequent enzymatic analysis.\nas §1\nUsing this high-throughput bacterial protein expression and enzyme assay system, activities of approximately 1200 engineered proteins were measured relative to the activity of a selected wild-type protein, RdpA. In a 96 well plate assay, there were 3 controls (crude bacterial extract without an engineered protein) and 3 positive controls (crude bacterial extract with wild-type protein). The absorbance of the wells was measured and the protein activity was calculated using the following formula:\n[formula] where, Activityi is the activity of the sample, Absorbancei is the absorbance of the sample, AbsorbanceWT is the absorbance of the wells containing extract from E. coli expressing the wild-type enzyme, and AbsorbancepET is the absorbance of the wells containing extract from E. coli without an engineered protein. Activity for each unique engineered protein was measured in duplicate and was reported as an average of the two measurements.\nUsing the information learned from the first assays, protein engineering was then done as described previously to produce additional engineered proteins, which were tested as described in this Example 1. The results of the high-throughput enzyme assay with quizalofop-P as the substrate for five of these additional engineered proteins are provided in Table 2."}, "[4]": {"conditions": "2,4-D rate 2X (1.5 lb ae/acre), single copy R0 soy, seven days after application"}},
  "note": "Positions count from the first letter of the chain named. Like-named read-outs stand apart in the source and are kept apart here.",
  "data": [
    {"molecule": "B1", "values": [
      {"measurement": "Events with <20% injury", "setting": "[1]; [4]", "value": 9},
      {"measurement": "tolerance to 2,4-D treatment", "setting": "[1]", "value": "excellent tolerance"}
    ]},
    {"molecule": "B2", "values": [
      {"measurement": "Events with 20-50% injury", "setting": "[1]; [4]", "value": 1},
      {"measurement": "Events with <20% injury", "setting": "[1]; [4]", "value": 11},
      {"measurement": "tolerance to 2,4-D treatment", "setting": "[1]", "value": "excellent tolerance"}
    ]},
    {"molecule": "B3", "values": [
      {"measurement": "Km", "setting": "[2]; read-out: Km Fenoxaprop", "value": 490, "unit": "µM"},
      {"measurement": "Km", "setting": "[2]; read-out: Km Fluazifop", "value": 14, "unit": "µM"},
      {"measurement": "Km", "setting": "[2]; read-out: Km Haloxyfop", "value": 280, "unit": "µM"},
      {"measurement": "Km", "setting": "[2]; read-out: Km Quizalofop-P", "value": 420, "unit": "µM"},
      {"measurement": "Vmax Fenoxaprop", "setting": "[2]", "value": 420},
      {"measurement": "Vmax Fluazifop", "setting": "[2]", "value": 43},
      {"measurement": "Vmax Haloxyfop", "setting": "[2]", "value": 45},
      {"measurement": "Vmax Quizalofop-P", "setting": "[2]", "value": 39},
      {"measurement": "Replicate 1 quizalofop-P activity", "setting": "[3]", "value": 92.17},
      {"measurement": "Replicate 2 quizalofop-P activity", "setting": "[3]", "value": 54.46},
      {"measurement": "Replicate 3 quizalofop-P activity", "setting": "[3]", "value": 89.75},
      {"measurement": "Average quizalofop-P activity", "setting": "[3]", "value": 78.79}
    ]},
    {"molecule": "B4", "values": [
      {"measurement": "Km", "setting": "[2]; read-out: Km Fenoxaprop", "value": 1100, "unit": "µM"},
      {"measurement": "Km", "setting": "[2]; read-out: Km Fluazifop", "value": 1, "unit": "µM"},
      {"measurement": "Km", "setting": "[2]; read-out: Km Haloxyfop", "value": 290, "unit": "µM"},
      {"measurement": "Km", "setting": "[2]; read-out: Km Quizalofop-P", "value": 690, "unit": "µM"},
      {"measurement": "Vmax Fenoxaprop", "setting": "[2]", "value": 640},
      {"measurement": "Vmax Fluazifop", "setting": "[2]", "value": 40},
      {"measurement": "Vmax Haloxyfop", "setting": "[2]", "value": 64},
      {"measurement": "Vmax Quizalofop-P", "setting": "[2]", "value": 95},
      {"measurement": "Replicate 1 quizalofop-P activity", "setting": "[3]", "value": 105.34},
      {"measurement": "Replicate 2 quizalofop-P activity", "setting": "[3]", "value": 105.31},
      {"measurement": "Replicate 3 quizalofop-P activity", "setting": "[3]", "value": 106.13},
      {"measurement": "Average quizalofop-P activity", "setting": "[3]", "value": 105.60}
    ]},
    {"molecule": "B5", "values": [
      {"measurement": "Km", "setting": "[2]; read-out: Km Fenoxaprop", "value": 2100, "unit": "µM"},
      {"measurement": "Km", "setting": "[2]; read-out: Km Haloxyfop", "value": 380, "unit": "µM"},
      {"measurement": "Km", "setting": "[2]; read-out: Km Quizalofop-P", "value": 560, "unit": "µM"},
      {"measurement": "Vmax Fenoxaprop", "setting": "[2]", "value": 630},
      {"measurement": "Vmax Haloxyfop", "setting": "[2]", "value": 40},
      {"measurement": "Vmax Quizalofop-P", "setting": "[2]", "value": 32},
      {"measurement": "Replicate 1 quizalofop-P activity", "setting": "[3]", "value": 131.85},
      {"measurement": "Replicate 2 quizalofop-P activity", "setting": "[3]", "value": 149.77},
      {"measurement": "Replicate 3 quizalofop-P activity", "setting": "[3]", "value": 130.56},
      {"measurement": "Average quizalofop-P activity", "setting": "[3]", "value": 137.39}
    ]}
  ]
}
